{"source": "patent US20040156842A1", "about": "(ZymoGenetics, published 2004)", "binders": {"B1": {"name": "Zven2 (\"endocrine-gland-derived vascular endothelial growth factor\") protein purchased from Peprotech, Inc. (ligand)", "chain": "AVITGACERDVQCGAGTCCAISLWLRGLRMCTPLGREGEECHPGSHKVPFFRKRKHHTCPCLPNLLCSRFPDGRYRCSMDLKNINF"}, "B2": {"name": "Zven1 protein produced in baculovirus with a C-terminal Glu-Glu tag (ligand)", "chain": "AVITGACDKDSQCGGGMCCAVSIWVKSIRICTPMGKLGDSCHPLTRKVPFFGRRMHHTCPCLPGLACLRTSFNRFICLAQKGLEYMPMD"}, "B3": {"name": "Heated Zven1 (Baculovirus-expressed Zven1 heated at 56° C. for 30 minutes) (ligand)", "chain": "B2 chain"}, "B4": {"name": "Zven1 (E. coli produced) (ligand)", "chain": "AVITGACDKDSQCGGGMCCAVSIWVKSIRICTPMGKLGDSCHPLTRKVPFFGRRMHHTCPCLPGLACLRTSFNRFICLAQK"}}, "key": {"[1]": {"molecular_target": "GPCR73a receptor (Homo sapiens (Human)) (UniProt Q8TCW9)", "sequence (Q8TCW9 whole entry)": "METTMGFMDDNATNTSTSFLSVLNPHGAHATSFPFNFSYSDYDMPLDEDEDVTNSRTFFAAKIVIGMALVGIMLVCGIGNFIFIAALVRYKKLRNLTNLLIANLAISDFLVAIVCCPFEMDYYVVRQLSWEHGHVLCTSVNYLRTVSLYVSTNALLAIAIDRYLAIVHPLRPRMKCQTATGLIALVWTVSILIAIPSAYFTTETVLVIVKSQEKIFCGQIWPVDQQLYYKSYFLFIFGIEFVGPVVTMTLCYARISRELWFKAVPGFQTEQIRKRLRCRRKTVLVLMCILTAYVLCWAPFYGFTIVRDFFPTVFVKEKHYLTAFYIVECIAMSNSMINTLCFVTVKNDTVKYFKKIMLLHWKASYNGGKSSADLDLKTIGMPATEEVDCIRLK", "experiment": "cell-based or functional assay"}, "[2]": {"molecular_target": "GPCR73b receptor (Homo sapiens (Human)) (UniProt Q8NFJ6)", "sequence (Q8NFJ6 whole entry)": "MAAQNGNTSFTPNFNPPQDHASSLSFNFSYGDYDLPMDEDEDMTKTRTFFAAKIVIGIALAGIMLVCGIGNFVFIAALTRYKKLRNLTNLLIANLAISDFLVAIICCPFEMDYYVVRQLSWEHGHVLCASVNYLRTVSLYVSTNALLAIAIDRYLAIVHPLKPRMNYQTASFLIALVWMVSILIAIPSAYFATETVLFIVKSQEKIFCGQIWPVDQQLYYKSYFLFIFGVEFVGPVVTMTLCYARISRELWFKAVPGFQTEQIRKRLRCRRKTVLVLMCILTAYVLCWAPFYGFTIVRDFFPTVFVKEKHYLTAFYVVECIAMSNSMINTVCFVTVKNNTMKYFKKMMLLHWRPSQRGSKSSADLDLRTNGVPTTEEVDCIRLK", "experiment": "cell-based or functional assay"}, "[3]": {"molecular_target": "GPCR73a receptor (Homo sapiens (Human)) (UniProt Q8TCW9)", "experiment": "cell-based or functional assay", "remark": "listed apart in the source"}, "[4]": {"molecular_target": "GPCR73b receptor (Homo sapiens (Human)) (UniProt Q8NFJ6)", "experiment": "cell-based or functional assay", "remark": "listed apart in the source"}, "[5]": {"molecular_target": "Zven1 receptor on Wky12-22 cells (rat)", "experiment": "saturation binding of I125-radiolabeled Zven1 to Wky12-22 cell monolayers at 4 C, two-site nonlinear regression; high affinity site"}, "[6]": {"molecular_target": "Zven1 receptor on Wky12-22 cells (rat)", "experiment": "saturation binding of I125-radiolabeled Zven1 to Wky12-22 cell monolayers at 4 C, two-site nonlinear regression; low affinity site"}, "[7]": {"molecular_target": "Zven1 receptor on Wky12-22 cells (rat)", "experiment": "cell-based or functional assay"}, "[8]": {"molecular_target": "T1, GPCR73a receptor (Homo sapiens (Human), UniProt Q8TCW9 1-393)", "T1 sequence (Q8TCW9 whole entry)": "as the sequence (Q8TCW9 whole entry) above", "experiment": "cell-based or functional assay"}, "[9]": {"molecular_target": "T1, GPCR73a receptor", "experiment": "cell-based or functional assay", "remark": "listed apart in the source"}, "[10]": {"molecular_target": "T2, GPCR73b receptor (Homo sapiens (Human), UniProt Q8NFJ6 1-384)", "T2 sequence (Q8NFJ6 whole entry)": "as the sequence (Q8NFJ6 whole entry) above", "experiment": "cell-based or functional assay"}, "[11]": {"molecular_target": "T2, GPCR73b receptor", "experiment": "cell-based or functional assay", "remark": "listed apart in the source"}}, "note": "Where two headings read alike, the source gives them in different places."}
{"binder": "B1", "values": [{"measurement": "SRE luciferase fold-induction at 1 ng/ml (fold-induction)", "setting": "[1]", "result": 0.95}, {"measurement": "SRE luciferase fold-induction at 3.2 ng/ml (fold-induction)", "setting": "[1]", "result": 1.3}, {"measurement": "SRE luciferase fold-induction at 10 ng/ml (fold-induction)", "setting": "[1]", "result": 2.6}, {"measurement": "SRE luciferase fold-induction at 32 ng/ml (fold-induction)", "setting": "[1]", "result": 7.2}, {"measurement": "SRE luciferase fold-induction at 320 ng/ml (fold-induction)", "setting": "[1]", "result": 20.5}, {"measurement": "SRE luciferase fold-induction at 1000 ng/ml (fold-induction)", "setting": "[1]", "result": 15}, {"measurement": "SRE luciferase fold-induction at 1 ng/ml (fold-induction)", "setting": "[2]", "result": 1.1}, {"measurement": "SRE luciferase fold-induction at 3.2 ng/ml (fold-induction)", "setting": "[2]", "result": 1.3}, {"measurement": "SRE luciferase fold-induction at 10 ng/ml (fold-induction)", "setting": "[2]", "result": 1.8}, {"measurement": "SRE luciferase fold-induction at 32 ng/ml (fold-induction)", "setting": "[2]", "result": 2.8}, {"measurement": "SRE luciferase fold-induction at 100 ng/ml (fold-induction)", "setting": "[2]", "result": 5.6}, {"measurement": "SRE luciferase fold-induction at 320 ng/ml (fold-induction)", "setting": "[2]", "result": 8.3}, {"measurement": "SRE luciferase fold-induction at 1000 ng/ml (fold-induction)", "setting": "[2]", "result": 8.4}, {"measurement": "SRE luciferase fold-induction at 1 ng/ml (fold-induction)", "setting": "[3]", "result": 1.2}, {"measurement": "SRE luciferase fold-induction at 3.2 ng/ml (fold-induction)", "setting": "[3]", "result": 1.6}, {"measurement": "SRE luciferase fold-induction at 10 ng/ml (fold-induction)", "setting": "[3]", "result": 2.5}, {"measurement": "SRE luciferase fold-induction at 32 ng/ml (fold-induction)", "setting": "[3]", "result": 5.8}, {"measurement": "SRE luciferase fold-induction at 100 ng/ml (fold-induction)", "setting": "[3]", "result": 11.4}, {"measurement": "SRE luciferase fold-induction at 320 ng/ml (fold-induction)", "setting": "[3]", "result": 24.4}, {"measurement": "SRE luciferase fold-induction at 1000 ng/ml (fold-induction)", "setting": "[3]", "result": 20}, {"measurement": "SRE luciferase fold-induction at 3.2 ng/ml (fold-induction)", "setting": "[4]", "result": 1.4}, {"measurement": "SRE luciferase fold-induction at 32 ng/ml (fold-induction)", "setting": "[4]", "result": 2.7}, {"measurement": "SRE luciferase fold-induction at 100 ng/ml (fold-induction)", "setting": "[4]", "result": 4.1}, {"measurement": "SRE luciferase fold-induction at 320 ng/ml (fold-induction)", "setting": "[4]", "result": 5.8}, {"measurement": "SRE luciferase fold-induction at 1000 ng/ml (fold-induction)", "setting": "[4]", "result": 6.1}]}
{"binder": "B2", "values": [{"measurement": "Bmax (fmol bound/10^6 cells)", "setting": "[5]", "result": 350}, {"measurement": "Kd", "setting": "[5]", "result": 1.5, "unit": "nM"}, {"measurement": "Bmax (fmol bound/10^6 cells)", "setting": "[6]", "result": 1020}, {"measurement": "Kd", "setting": "[6]", "result": 31, "unit": "nM"}, {"measurement": "ERK-Map kinase activity in Wky12-22 cells, EC50", "setting": "[7]", "result": 0.5, "unit": "nM"}, {"measurement": "SRE luciferase fold-induction at 1 ng/ml (fold-induction)", "setting": "[3]", "result": 2.5}, {"measurement": "SRE luciferase fold-induction at 3.2 ng/ml (fold-induction)", "setting": "[3]", "result": 7.1}, {"measurement": "SRE luciferase fold-induction at 10 ng/ml (fold-induction)", "setting": "[3]", "result": 13.1}, {"measurement": "SRE luciferase fold-induction at 32 ng/ml (fold-induction)", "setting": "[3]", "result": 18.7}, {"measurement": "SRE luciferase fold-induction at 100 ng/ml (fold-induction)", "setting": "[3]", "result": 20.5}]}
{"binder": "B3", "values": [{"measurement": "SRE luciferase fold-induction at 1 ng/ml (fold-induction)", "setting": "[3]", "result": 1.8}, {"measurement": "SRE luciferase fold-induction at 3.2 ng/ml (fold-induction)", "setting": "[3]", "result": 3.7}, {"measurement": "SRE luciferase fold-induction at 10 ng/ml (fold-induction)", "setting": "[3]", "result": 10}, {"measurement": "SRE luciferase fold-induction at 32 ng/ml (fold-induction)", "setting": "[3]", "result": 14.8}, {"measurement": "SRE luciferase fold-induction at 100 ng/ml (fold-induction)", "setting": "[3]", "result": 18.6}]}
{"binder": "B4", "values": [{"measurement": "SRE luciferase fold-induction at 1 ng/ml", "setting": "[8]", "result": 1.9, "unit": "fold-induction"}, {"measurement": "SRE luciferase fold-induction at 3.2 ng/ml", "setting": "[8]", "result": 4, "unit": "fold-induction"}, {"measurement": "SRE luciferase fold-induction at 10 ng/ml", "setting": "[8]", "result": 8.4, "unit": "fold-induction"}, {"measurement": "SRE luciferase fold-induction at 32 ng/ml", "setting": "[8]", "result": 15, "unit": "fold-induction"}, {"measurement": "SRE luciferase fold-induction at 100 ng/ml", "setting": "[8]", "result": 19, "unit": "fold-induction"}, {"measurement": "SRE luciferase fold-induction at 320 ng/ml", "setting": "[8]", "result": 20.7, "unit": "fold-induction"}, {"measurement": "SRE luciferase fold-induction at 1000 ng/ml", "setting": "[8]", "result": 17.8, "unit": "fold-induction"}, {"measurement": "SRE luciferase fold-induction at 1 ng/ml", "setting": "[9]", "result": 4.1, "unit": "fold-induction"}, {"measurement": "SRE luciferase fold-induction at 3.2 ng/ml", "setting": "[9]", "result": 7.6, "unit": "fold-induction"}, {"measurement": "SRE luciferase fold-induction at 10 ng/ml", "setting": "[9]", "result": 10.2, "unit": "fold-induction"}, {"measurement": "SRE luciferase fold-induction at 32 ng/ml", "setting": "[9]", "result": 14.1, "unit": "fold-induction"}, {"measurement": "SRE luciferase fold-induction at 100 ng/ml", "setting": "[9]", "result": 17.6, "unit": "fold-induction"}, {"measurement": "SRE luciferase fold-induction at 320 ng/ml", "setting": "[9]", "result": 22, "unit": "fold-induction"}, {"measurement": "SRE luciferase fold-induction at 1000 ng/ml", "setting": "[9]", "result": 13.9, "unit": "fold-induction"}, {"measurement": "SRE luciferase fold-induction at 1 ng/ml", "setting": "[10]", "result": 0.7, "unit": "fold-induction"}, {"measurement": "SRE luciferase fold-induction at 3.2 ng/ml", "setting": "[10]", "result": 1.3, "unit": "fold-induction"}, {"measurement": "SRE luciferase fold-induction at 10 ng/ml", "setting": "[10]", "result": 1.9, "unit": "fold-induction"}, {"measurement": "SRE luciferase fold-induction at 32 ng/ml", "setting": "[10]", "result": 3, "unit": "fold-induction"}, {"measurement": "SRE luciferase fold-induction at 100 ng/ml", "setting": "[10]", "result": 4.7, "unit": "fold-induction"}, {"measurement": "SRE luciferase fold-induction at 320 ng/ml", "setting": "[10]", "result": 6.3, "unit": "fold-induction"}, {"measurement": "SRE luciferase fold-induction at 1000 ng/ml", "setting": "[10]", "result": 7.1, "unit": "fold-induction"}, {"measurement": "SRE luciferase fold-induction at 1 ng/ml", "setting": "[11]", "result": 1, "unit": "fold-induction"}, {"measurement": "SRE luciferase fold-induction at 3.2 ng/ml", "setting": "[11]", "result": 1.2, "unit": "fold-induction"}, {"measurement": "SRE luciferase fold-induction at 10 ng/ml", "setting": "[11]", "result": 1.7, "unit": "fold-induction"}, {"measurement": "SRE luciferase fold-induction at 32 ng/ml", "setting": "[11]", "result": 2.6, "unit": "fold-induction"}, {"measurement": "SRE luciferase fold-induction at 100 ng/ml", "setting": "[11]", "result": 4.4, "unit": "fold-induction"}, {"measurement": "SRE luciferase fold-induction at 320 ng/ml", "setting": "[11]", "result": 5.2, "unit": "fold-induction"}, {"measurement": "SRE luciferase fold-induction at 1000 ng/ml", "setting": "[11]", "result": 4.8, "unit": "fold-induction"}]}
